We go through five molecules from patent US20110300138A1 (published 2011).

In test [1] the target is TSHR with Thr257 mutated to Ala, expressed in CHO cells (human) (UniProt P16473). Description: cell-based or functional assay.
In test [2] the target is wild type TSHR (human TSH receptor) expressed in CHO cells (human) (UniProt P16473). Kind of test: cell-based or functional assay.
The target in test [3] is TSHR (thyroid stimulating hormone receptor), full length human (human) (UniProt P16473). Description: negative control; competitor ^125I-K1-70 IgG, TSHR coated tubes; 10 µg/mL in assay buffer.
Test [4] deals with thyroid stimulating hormone receptor (TSHR), full length human TSHR (human) (UniProt P16473). Kind of test: TSH-biotin competition ELISA, TSHR coated wells; negative control, 0.01 µg/mL in HBD serum. On the technique in general: An ELISA detects its analyte on a solid surface through an enzyme-linked reagent.
Test [5] has the same target. Description: TSH-biotin competition ELISA, TSHR coated wells; negative control, 1 µg/mL in assay buffer.
Test [6] concerns the target human thyroid stimulating hormone receptor (TSHR), full length (human) (UniProt P16473). Kind of test: 125I-K1-70 Fab (competitor) binding to TSHR coated tubes; negative control MAb 0.1 µg/mL in assay buffer.
Test [7] concerns the target human TSH receptor (full length) coated on ELISA plate wells (human) (UniProt P16473). Description: TSH-biotin binding inhibition ELISA, TSHR coated wells; 0.1 µg/mL in HBD serum pool; negative control MAb.
Test [8] concerns the target human thyroid stimulating hormone receptor (TSHR), full length (human) (UniProt P16473). Kind of test: 125I-K1-70 Fab (competitor) binding to TSHR coated tubes; negative control MAb 0.001 µg/mL in assay buffer.
Test [9] has as its target TSHR (full length) coated on tubes (human) (UniProt P16473). Kind of test: inhibition of 125I-K1-18 Fab (competitor) binding to TSHR coated tubes; negative control 10 µg/mL in HBD serum.
The target is the same in test [10]. Description: inhibition of 125I-K1-18 Fab (competitor) binding to TSHR coated tubes; negative control 100 µg/mL in HBD serum.
Test [11] addresses TSH receptor (TSHR) coated on tubes (human) (UniProt P16473). Kind of test: inhibition of 125I-K1-70 IgG binding to TSHR coated tubes; negative control 100 µg/mL in HBD serum pool; duplicate determination.
Test [12] addresses TSH receptor (TSHR), full length human, coated on tubes (human) (UniProt P16473). Kind of test: inhibition of 125I-K1-18 IgG binding to TSHR coated tubes; competitor 125I-K1-18 IgG; negative control sample at 0.1 µg/mL in HBD serum.
For test [13], the target named is TSH receptor (full length human TSHR) (human) (UniProt P16473). Description: competition ELISA: inhibition of M22 Fab-peroxidase (competitor) binding to TSHR coated wells; negative control at 10 µg/mL diluted in assay buffer.
For test [14], the target named is TSHR (full length) coated on tubes (human) (UniProt P16473). Kind of test: inhibition of 125I-K1-18 Fab (competitor) binding to TSHR coated tubes; test sample 10 µg/mL in HBD serum.
Test [15] concerns the target TSH receptor (TSHR), full length human, coated on tubes (human) (UniProt P16473). Description: inhibition of 125I-K1-18 IgG binding to TSHR coated tubes; competitor 125I-K1-18 IgG; sample at 1 µg/mL in HBD serum.
Test [16] concerns the target TSH receptor (full length human TSHR) (human) (UniProt P16473). Kind of test: competition ELISA: inhibition of M22 Fab-peroxidase (competitor) binding to TSHR coated wells; test sample at 10 µg/mL diluted in assay buffer.
For test [17], the target named is TSH receptor (full length human TSHR) coated on tubes (human) (UniProt P16473). Description: 125I-TSH binding inhibition read against NIBSC 90/672; 100 ng/mL, in serum.
The target in test [18] is TSHR with Phe134 mutated to Ala, expressed in CHO cells (human) (UniProt P16473). Description: cell-based or functional assay.
Test [19] deals with wild type TSHR expressed in CHO cells (human) (UniProt P16473). Kind of test: cell-based or functional assay.
In test [20] the target is human thyroid stimulating hormone receptor (TSHR), full length (human) (UniProt P16473). Kind of test: 125I-K1-18 Fab competition, TSHR coated tubes; 10 µg/mL in HBD.
Test [21] shares this target. Kind of test: 125I-K1-18 Fab competition, TSHR coated tubes; 0.01 µg/mL in assay buffer.
Test [22] has as its target human TSH receptor (full length) coated on ELISA plate wells (human) (UniProt P16473). Kind of test: TSH-biotin binding inhibition ELISA, TSHR coated wells; 0.1 µg/mL in HBD serum pool.
The target in test [23] is TSH receptor (TSHR), full length human, coated on tubes (human) (UniProt P16473). Description: inhibition of 125I-TSH binding to TSHR coated tubes; 10 µg/mL, diluted in assay buffer.
Test [24] has as its target thyroid stimulating hormone receptor (full length human TSHR) (human) (UniProt P16473). Description: ELISA, inhibition of TSH-biotin binding to TSHR coated wells; 0.1 µg/mL, diluted in assay buffer.
Test [25] deals with thyroid stimulating hormone receptor (TSHR), full length, coated on tubes (human) (UniProt P16473). Kind of test: inhibition of 125I-TSH binding, TSHR coated tubes; antibody 0.01 µg/mL in assay buffer; mean of duplicate.
Test [26] concerns the target TSH receptor (TSHR), full length human, coated on tubes (human) (UniProt P16473). Kind of test: inhibition of 125I-K1-18 IgG (competitor) binding to TSHR coated tubes; test sample at 0.01 µg/mL in assay buffer.
Test [27] has as its target thyroid stimulating hormone receptor (full length human TSHR) (human) (UniProt P16473). Kind of test: ELISA: inhibition of M22 Fab-peroxidase (competitor) binding to TSHR coated wells; 0.1 µg/mL, diluted in HBD serum pool.

5B3 IgG (antibody): the % inhibition of TSH stimulation; 5B3 10 µg/mL in test [1] turned out to be 0%. The % inhibition of TSH stimulation; 5B3 100 µg/mL in test [1] stood at 7%. For the same molecule, the Cyclic AMP produced; 5B3 10 µg/mL + TSH 3 ng/mL in test [1] is 94.2 pmol/mL; in [2] it was 85.9 pmol/mL. Further, the Cyclic AMP produced; 5B3 100 µg/mL + TSH 3 ng/mL in test [1] was found to be 86.8 pmol/mL; in test [2] it was 83.7 pmol/mL. Also, in test [1], the Mutated/wild type (%) of cyclic AMP produced; 5B3 10 µg/mL + TSH 3 ng/mL was determined as 110%. In addition, the Mutated/wild type (%) of cyclic AMP produced; 5B3 100 µg/mL + TSH 3 ng/mL in test [1] amounted to 104%. The Inhibition of binding (%) is 2.3% in test [3]; -5.1% in test [4]; -8.3% in test [5]; 2.2% in [6]; -1.8% in test [8]; -0.1% in test [9]. Further, the Inhibition of binding (%) in test [10] is -1.1%; in [11] it was 1.1%; in test [12], -7.8%; in test [13] it was 2.4%. In test [7], this molecule gave a % inhibition of TSH-biotin binding of 8.6%.

Take 9D33 IgG (antibody): the Inhibition of binding (%) in test [14] was 73.9%; in test [15] it was 62.1%; in test [16], 64.2%.

In test [17], M22 IgG (antibody) had a units/L of 9.9 units/L and a units/mg of 99 units/mg.

As for TSH (ligand), in [18], the % inhibition of TSH stimulation; TSH (2) worked out at 9%, the Cyclic AMP produced; TSH 3 ng/mL is 111 pmol/mL, the Cyclic AMP produced; TSH (2) turned out to be 102 pmol/mL and the Mutated/wild type (%) of cyclic AMP produced; TSH 3 ng/mL came out at 103%. The same molecule gave a Mutated/wild type (%) of cyclic AMP produced; TSH (2) in test [18] of 71%. Further, in [19], the Cyclic AMP produced; TSH 3 ng/mL amounted to 108 pmol/mL and the Cyclic AMP produced; TSH (2) turned out to be 142 pmol/mL.

B1: 5C9 IgG (antibody, from another filing, V domains shown)
VH: EVQLVESGGGLIQPGGSLRLSCAASGFTVSSNYMSWVRQAPGKGLEWVSVTYSGGSTSYADSVKGRFTISRDNSKNTLYLQMNSLRAEDTAVYYCARGGRYCSSISCYARSGCDYWGQGTLVTVSS
VL: AIQMTQSPSSLSASVGDRVTITCRASQSISNYLNWYQQKPGKAPKLLIYAASSLQSGVPSRFSGSGSGTDFTLTISSLQPEDFATYYCQQSYSSPSTTFGQGTKLEIK
Take B1: the Inhibition of binding (%) in [20] stood at 49.8%; in test [21], 3%; in test [23], 76.7%; in test [24], 26.1%; in [25], 15.9%; in test [26], 11.7%. For the same molecule, in test [27], the Inhibition of binding (%) stood at 6.3%. Moreover, the % inhibition of TSH-biotin binding in test [22] stood at 21.6%.
